The text below walks through data of patent US20250367313A1 (MULTITUDE, published 2025).

The target of experiment [1] is T1, recombinant MUC18 protein (rProtein) (Homo sapiens (Human), UniProt P43121 24-559).
T1 sequence: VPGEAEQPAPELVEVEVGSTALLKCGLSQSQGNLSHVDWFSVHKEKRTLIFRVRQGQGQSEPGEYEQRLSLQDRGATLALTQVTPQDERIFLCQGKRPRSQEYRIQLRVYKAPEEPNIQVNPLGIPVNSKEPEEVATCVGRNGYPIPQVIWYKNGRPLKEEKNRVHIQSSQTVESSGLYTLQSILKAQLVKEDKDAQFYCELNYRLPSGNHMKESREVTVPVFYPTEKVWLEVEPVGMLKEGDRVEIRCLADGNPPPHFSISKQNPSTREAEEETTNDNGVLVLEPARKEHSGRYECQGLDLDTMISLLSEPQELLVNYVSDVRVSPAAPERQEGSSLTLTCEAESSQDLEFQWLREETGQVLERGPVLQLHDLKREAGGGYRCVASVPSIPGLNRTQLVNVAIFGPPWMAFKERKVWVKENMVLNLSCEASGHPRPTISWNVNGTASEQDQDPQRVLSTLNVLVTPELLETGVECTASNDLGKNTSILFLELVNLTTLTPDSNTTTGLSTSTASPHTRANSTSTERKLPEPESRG
Briefly: ELISA titration, antibody with varying concentrations of recombinant MUC18 protein. Here is the method: Antibodies were incubated with varying concentrations of recombinant MUC18 protein (rProtein).

Experiment [2] has as its target T2, human MUC18 (human, UniProt P43121 24-646).
T2 sequence: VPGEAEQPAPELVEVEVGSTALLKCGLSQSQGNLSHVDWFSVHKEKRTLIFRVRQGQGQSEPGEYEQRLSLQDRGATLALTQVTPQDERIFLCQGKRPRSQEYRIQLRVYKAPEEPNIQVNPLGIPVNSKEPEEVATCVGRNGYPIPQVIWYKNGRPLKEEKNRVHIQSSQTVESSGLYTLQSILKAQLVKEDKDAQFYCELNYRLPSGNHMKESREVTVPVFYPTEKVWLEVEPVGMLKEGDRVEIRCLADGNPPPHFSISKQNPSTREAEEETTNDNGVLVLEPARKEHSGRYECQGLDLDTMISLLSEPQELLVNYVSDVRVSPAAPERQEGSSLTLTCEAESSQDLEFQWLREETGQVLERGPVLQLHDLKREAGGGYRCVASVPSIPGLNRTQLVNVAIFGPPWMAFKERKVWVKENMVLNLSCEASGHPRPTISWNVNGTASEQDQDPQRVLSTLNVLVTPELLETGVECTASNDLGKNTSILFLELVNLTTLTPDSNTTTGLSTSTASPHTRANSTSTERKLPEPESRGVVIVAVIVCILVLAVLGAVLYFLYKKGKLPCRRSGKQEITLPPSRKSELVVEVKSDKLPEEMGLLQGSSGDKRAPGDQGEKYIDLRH
Nature of the experiment: cell-based or functional assay.

Numbering of substitutions follows the chain as printed.

B1: CL070336 (antibody, V domains shown)
VH: DVQLQESGPDLVKPYQSLSLTCTVTGYSITSGYSWHWIRQFPGNKLEWLGYMHYSATPNYNPSLKSRISITRDTSKNQFFLQLNSVTTEDTATYYCSRSLNWDVLDYWGQGTTLIVSS
VL: DIVLTQSPAYLPVSLGQRATISCRASKSVRTSGYNYLHWYQQKPGQPPKLLIYLASNPESGVPGRFSGSGSGTDFTLNIHPVEEEDSATYYCQHSREFPFTFGGGTQLEIK
notes: also called anti-MUC18 antibody CL070336
Consider B1, for which the Binding affinity in experiment [1] was 0.39 nM.

B2: CL070335 (antibody, V domains shown)
VH: B1 VH with Y15S, L49M, M52I, A56T, P58T, N84S, Y95F
VL: B1 VL with N35S, P58L, G64D, S87A, S95T, Q107K
notes: also called anti-MUC18 antibody CL070335
For B2, the Binding affinity in experiment [1] amounted to 0.39 nM.

B3: J253-vc-MMAE (antibody, V domains shown)
VH: QVQLQQSGAELVKPGASVKLSCKASGYTFTSYDINWVRQRPEQGLEWIGWIFPGDGSTDYNEKFKGKATLTTDKSSSTAYMQLSRLTSEDSAVYFCARYHFFDNWGQGTTLTVSS
VL: DIVITQDELSNPVTSGESVSISCRSSKSLLYKDGKTYLSWFLQRPGQSPQLLIYLMSTRASGVSDRFSGSGSGTDFTLEISRVKAEDVGVYYCQQLVEYPYTFGGGTKLEIK
modifications: maleimidocaproyl-Val-Cit-PAB-MMAE coupled to the antibody by a thiol-based reaction; sites and drug load not stated
For B3, in experiment [2], the “IC50 of cell viability, GAK cells” value amounted to 0.297 nM; the “IC50 of cell viability, HMV-II cells” value was determined as 0.103 nM; the “IC50 of cell viability, SK-MEL-2 cells” value worked out at 0.115 nM.

B4: J253 (antibody, V domains shown)
VH: B3 VH
VL: B3 VL
notes: also called anti-MUC18 antibody (J253)
As for B4, the Binding affinity in experiment [1] is 0.39 nM.

B5: CL070324 (antibody, V domains shown)
VH: EVLLQQSGPELVKPGASVKIPCKASGYTFTDYNMDWVKQSHGKSLEWIGDINPNNGATLYNQNFRGKATLTVDKSSSTAYMELRSLTSEDTAVYYCTRSGYDDYYALDYWGQGTSVTVSS
VL: QTVLTQSPAIMSASLGEEITLTCSASSSVGYMHWYQQKSGTSPKLLIYSTSNLASGVPSRFSGRGSGTFYSLTISTVEAEDAADYYCHQWSNYPSTFGTGTKLELK
notes: also called anti-MUC18 antibody CL070324
Regarding B5, the Binding affinity in experiment [1] came to 50 nM.

B6: CL070349 (antibody, V domains shown)
VH: DVQLQESGPGLVKPSQSLSLTCSVTGYSITSGFYWNWIRQLPGNKLEWLGYINFGGTNNYNPSLKIRGSITRDTSKNQFFLKLNSVTTEDTATYYCARGGNDGGFTYWGQGTLVTVSA
VL: ENVLTQSPAIVAASLGQKVTMTCRASSSVSSTYFHWYQQKSGASPKPLLHRTSNLASGVPARFSGSGSGTSYSLTISSVEAEDDATYYCHQWSGYPYTFGGGTKLEIK
notes: also called anti-MUC18 antibody CL070349
On to B6, for which, in experiment [1], the Binding affinity was 1.56 nM.

B7: CL070333 (antibody, V domains shown)
VH: QVQLQQSGPELVKPGTSVKISCKASGFTFTGYYLHWLKQRPGQGLEWIGWIYPGNVNTEFNEKFKGQATLTADKSSSTAYMQLSSLTSEDSAVYFCARSGYFASSYEFAYWGQGTLVTVSA
VL: DIQMTQSPASLSASVGETVTITCRASENIYSYLAWYQQKQGKSPQLLVYNAKTLAEGVPSRFSVSGSGTHFSLKINSLQPEDFGSYYCQHHYGTPLTFGAGTKLELK
notes: also called anti-MUC18 antibody CL070333
In the case of B7, in experiment [1], the Binding affinity stood at 12.5 nM.

B8: CL070341 (antibody, V domains shown)
VH: EVQLVESGGDLVRPGGSLKLSCAASGFTFSTYGMSWVRQSPDKRLEWVATINSRASYTYYPDSVKGRFTISRDNAKNTLYLQMSSLKSEDTGLYFCARHRRDWDSYYAMDYWGQGTSVTVSS
VL: NIMLTQSPSSLAVSTGDKVTMNCKSSQSVLYNSNQKNYLAWYQQKPGQSPTLLIYWASTSESGVPDRFTGSGSGTDFTLTISSVQAEDLAVYYCHQYLSSWTFGGGTKLEIK
notes: also called anti-MUC18 antibody CL070341
Consider B8, for which the Binding affinity in experiment [1] came out at 50 nM.

B9: CL070350 (antibody, V domains shown)
VH: AVQLVESGGDLLRPGGSLKLSCVASGFTFNNYGMSWVRQTPDKRLEWVATINRGGSYTYYTDSVKGRFTISRDNAKKTLYLQMSSLKSEDTAMYYCARHRRDWDSYYAMDYWGQGTSVTVSS
VL: B8 VL with L4M, T15A, T20A, N22S, Q27R, Q44L, T51K, S60R, L109V
notes: also called anti-MUC18 antibody CL070350
B9: in experiment [1], the Binding affinity came out at 0.19 nM.

B10: CL070370 (antibody, V domains shown)
VH: QIQLVQSGPELKKPGETVKISCKTSGYTFTDYSMHWVKQAPRKGLKWMGWINTETGEPTYADDFKGRFAFSLETSASTAYLQINNLRNEDTATYFCVSYDYDAVSYWGQGTLVTVSA
VL: DIVMTQSHKFMSTSVGDRVNITCKASQYVGAAVAWYQQKPGQSPKLLIYWASTRHTGVPDRFTGSGSGTDFTLTINNVQSEDLADYFCQQYGNYRTFGGGTKLEIK
notes: also called anti-MUC18 antibody CL070370
Turning to B10, the Binding affinity in experiment [1] stood at 3.12 nM.
